# Data from US20030185828.
# Biological target: recombinant aggrecan G1G2 (globular domain 1-globular domain 2 of human aggrecan with N-terminal FLAG tag and C-terminal His tag), P16112
# Sequence (P16112 20-675): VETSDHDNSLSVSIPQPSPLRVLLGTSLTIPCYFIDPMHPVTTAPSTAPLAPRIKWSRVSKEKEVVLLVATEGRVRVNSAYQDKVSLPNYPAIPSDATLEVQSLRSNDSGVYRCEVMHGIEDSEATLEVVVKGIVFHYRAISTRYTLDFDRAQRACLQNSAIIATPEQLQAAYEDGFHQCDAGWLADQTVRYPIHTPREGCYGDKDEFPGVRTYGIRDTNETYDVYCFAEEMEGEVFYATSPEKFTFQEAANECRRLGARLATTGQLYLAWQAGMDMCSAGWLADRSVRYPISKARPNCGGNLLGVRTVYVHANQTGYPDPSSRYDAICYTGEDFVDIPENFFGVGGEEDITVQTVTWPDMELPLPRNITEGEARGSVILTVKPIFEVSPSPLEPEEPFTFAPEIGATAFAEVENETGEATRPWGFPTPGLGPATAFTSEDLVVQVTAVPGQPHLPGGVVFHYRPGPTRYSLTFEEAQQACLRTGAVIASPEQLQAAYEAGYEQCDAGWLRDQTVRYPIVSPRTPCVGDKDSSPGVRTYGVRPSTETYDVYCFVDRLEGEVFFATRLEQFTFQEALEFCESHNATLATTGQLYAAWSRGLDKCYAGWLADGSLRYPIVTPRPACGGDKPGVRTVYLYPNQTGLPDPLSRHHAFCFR
protein,measurement,value
"MDTS8 full-length protein (MDTS8Full) with FLAG tag added to the C-terminus, expressed from plasmid pCEPdE2-MDTS8Full-FLAG (protein) MECALLLACAFPAAGSGPPRGLAGLGRVAKALQLCCLCCASVAAALASDSSSGASGLNDDYVFVTPVEVDSAGSYISHDILHNGRKKRSAQNARSSLHYRFSAFGQELHLELKPSAILSSHFIVQVLGKDGASETQKPEVQQCFYQGFIRNDSSSSVAVSTCAGLSGLIRTRKNEFLISPLPQLLAQEHNYSSPAGHHPHVLYKRTAEEKIQRYRGYPGSGRNYPGYSPSHIPHASQSRETEYHHRRLQKQHFCGRRKKYAPKPPTEDTYLRFDEYGSSGRPRRSAGKSQKGLNVETLVVADKKMVEKHGKGNVTTYILTVMNMVSGLFKDGTIGSDINVVVVSLILLEQEPGGLLINHHADQSLNSFCQWQSALIGKNGKRHDHAILLTGFDICSWKNEPCDTLGFAPISGMCSKYRSCTINEDTGLGLAFTIAHESGHNFGMIHDGEGNPCRKAEGNIMSPTLTGNNGVFSWSSCSRQYLKKFLSTPQAGCLVDEPKQAGQYKYPDKLPGQIYDADTQCKWQFGAKAKLCSLGFVKDICKSLWCHRVGHRCETKFMPAAEGTVCGLSMWCRQGQCVKFGELGPRPIHGQWSAWSKWSECSRTCGGGVKFQERHCNNPKPQYGGLFCPGSSRIYQLCNINPCNENSLDFRAQQCAEYNSKPFRGWFYQWKPYTKVEEEDRCKLYCKAENFEFFFAMSGKVKDGTPCSPNKNDVCIDGVCELVGCDHELGSKAVSDACGVCKGDNSTCKFYKGLYLNQHKANEYYPVVIIPAGARSIEIQELQVSSSYLAVRSLSQKYYLTGGWSIDWPGEFPFAGTTFEYQRSFNRPERLYAPGPTNETLVFEILMQGKNPGIAWKYALPKVMNGTPPATKRPAYTWSIVQSECSVSCGGGYINVKAICLRDQNTQVNSSFCSAKTKPVTEPKICNAFSCPAYWMPGEWSTCSKACAGGQQSRKIQCVQKKPFQKEEAVLHSLCPVSTPTQVQACNSHACPPQWSLGPWSQCSKTCGRGVRKRELLCKGSAAETLPESQCTSLPRPELQEGCVLGRCPKNSRLQWVASSWSECSATCGLGVRKREMKCSEKGFQGKLITFPERRCRNIKKPNLDLEETCNRRACPAHPVYNMVAGWYSLPWQQCTVTCGGGVQTRSVHCVQQGRPSSSCLLHQKPPVLRACNTNFCPAPEKREDPSCVDFFNWCHLVPQHGVCNHKFYGKQCCKSCTRKIAAADYKDDDDK",degradation product reactive with the anti-aggrecanase neoepitope antibody (western blotting after overnight reaction at 37 C),such degradation products were detected when the culture supernatant of the HEK293-EBNA cell transfected with the plasmid pCEPdE2-MDTS8Full-FLAG was reacted with the recombinant G1G2
